Assay results published in patent US20140024076A1 (AstraZeneca / MedImmune, published 2014).

Target: RSV-F protein, full-length, human RSV strain A2 (human respiratory syncytial virus, …, UniProt P03420 26-574)
Assay: 25 nM Eu3+-labeled antibody on tetracycline-induced 293-derived cells, 44 h post induction; time-resolved fluorescence, R3-47 nonspecific binding subtracted

B1: motavizumab (antibody, V domains shown)
VH: QVTLRESGPALVKPTQTLTLTCTFSGFSLSTAGMSVGWIRQPPGKALEWLADIWWDDKKHYNPSLKDRLTISKDTSKNQVVLKVTNMDPADTATYYCARDMIFNFYFDVWGQGTTVTVSS
VL: DIQMTQSPSTLSASVGDRVTITCSASSRVGYMHWYQQKPGKAPKLLIYDTSKLASGVPSRFSGSGSGTEFTLTISSLQPDDFATYYCFQGSGYPFTFGGGTKVEIK
  fold amount of antibody bound, FGC-WPRE cell line compared to FGC cell line: 6.31 fold
